Results from a protein production outcome set (Wang et al. 2014).

Assay: label from the status in PepcDB records

| Sequence | protein production |
| --- | --- |
| MAYAHVFASLTISTISLRRFLPRLHRNHSVKPNSRIICNLKLNYSAGKFREMGLSRSVELDQFITSEEEEGEAEEIGEGFFEAIEELERMTREPSDILEEMNHRLSSRELQLMLVYFAQEGRDSWCTLEVFEWLKKENRVDEEIMELMVSIMCGWVKKLIEDECNAHQVFDLLIEMDCVGLKPGFSMMDKVIALYCEMGKKESAVLFVKEVLRRRDGFGYSVVGGGGSEGRKGGPVGYLAWKFMVDGDYRKAVDMVMELRLSGLKPEAYSYLIAMTAIVKELNSLGKTLRELKRFARAGFVAEIDDHDRVLIEKYQSETLSRGLQLATWAVEEGQENDSIIGVVHERLLAMYICAGRGPEAEKQLWKMKLAGREPEADLHDIVMAICASQKEVNAVSRLLTRVEFMGSQRKKKTLSWLLRGYVKGGHFEEAAETLVSMIDSGLHPEYIDRVAVMQGMTRKIQRPRDVEAYMSLCKRLFDAGLPKTNLNDLRTSVSSYVFLKLSESEGESKAGGRNKNHRGKIVMELEDPTMADSTIKLTVKFGGKSIPLSVSPDCTVKDLKSQLQPITNVLPRGQKLIFKGKVLVETSTLKQSDVGSGAKLMLMASQGLHQGEGPILKEASIRPISRTVVSDKVDQRKPSVLVDKNRTDRWKATGVIALAQANLKEIPEEVWDCGSGVRVLDISENFIKEVPAKISSFGSMQKLFLQGNGLSDESIQWEGIASLKRLMLLSISHNNLTVLPSAMGSLTSLRQLDVTNNKLTSLPNELGLLTQLEILKANNNRITSLPESIGNCSFLMEVDLSANIISELPETFTKLRNLKTLELNNTGLKTLPSALFKMCLQLSTLGLHNTEITVEFLRQFEGYDDFDERRRTKHQKQLDFRVVGSGQFDEGADKSW | failed |
| MAYDGLFTKKMVESLQFLTTGRVHKINQPDNDTILMVVRQNRQNHQLLLSIHPNFSRLQLTTKKYDNPFNPPMFARVFRKHLEGGIIESIKQIGNDRRIEIDIKSKDEIGDTIYRTVILEIMGKHSNLILVDENRKIIEGFKHLTPNTNHYRTVMPGFNYEAPPTQHKINPYDITGAEVLKYIDFNAGNIAKQLLNQFEGFSPLITNEIVSRRQFMTSSTLPEAFDEVMAETKLPPTPIFHKNHETGKEDFYFIKLNQFNDDTVTYDSLNDLLDRFYDARGERERVKQRANDLVRFVQQQLHKYQNKLAKLIEEYEQSKNKDTEQLYGELITANIYRIKQGDKEVTALNYYTNEEVVIPLNPTKSPSANAQYYYKQYNRMKTRERELQHQIQLTKDNIDYFSTIEQQLHHISVHDIDEIRDELAEQGFMKQRKNQTKKKKAQ | not failed |
| MAYLVFAYLVGSLVAGLLFFPEVRGKDLPGGSGVFRRKGPWAALLAVAFDLGKGALVALLTPEAYLPWAGALLVAGHTWPVFFRFRGGGGIAPSLGFFLVWRPAETLWATLFGLGVAGLYHLLFWRRRRKGIYPIPFGAIFGYLLLVYTLSGEARLGALLVAGVVLLRGLQILAGRW | failed |
| MAYRKQLTRLKAPYLKRILLDPGRVEDWEKYPWNLPLFRGREFELEFTAPITIIVGENGTGKSTLLEAIGALAGYDEAGGGKGYMPVDHSRAIDKSGAALADNFRCHWLPKVTAGWFFRAESFYSVARYLDEAARESGATPPDFLSWSHGEGFIRFFEERCRRQGIYILDEPESALSPSRQIELLKMLRRMDQSGTAQVIMATHSPLLMACPGARLFRISRFGLEPADFRDTDHFRMLRDFSNDPDGFLAEALYEDEA | failed |
| MAYSYTEKKRIRKDFSKLPDVMDVPYLLAIQLDSYREFLQAGATKEQFRDVGLHAAFKSVFPIISYSGNAALEYVGYRLGEPAFDVKECVLRGVTFAVPLRVKVRLIIFDRESSNKAIKDIKEQEVYMGEIPLMTENGTFIINGTERVIVSQLHRSPGVFFDHDRGKTHSSGKLLYSARIIPYRGSWLDFEFDPKDCVFVRIDRRRKLPASVLLRALGYSTEEILNAFYATNVFHIKGETLNLELVPQRLRGEVASIDIKDGSGKVIVEQGRRITARHINQLEKAGVSQLEVPFDYLIGRTIAKAIVHPATGEIIAECNTELTLDLLAKVAKAQVVRIETLYTNDIDCGPFISDTLKIDNTSNQLEALVEIYRMMRPGEPPTKEAAETLFGNLFFSAERYDLSAVGRMKFNRRIGRTEIEGPGVLSKEDIIDVLKTLVDIRNGKGIVDDIDHLGNRRVRCVGEMAENQFRVGLVRVERAVKERLSMAESEGLMPQDLINAKPVAAAIKEFFGSSQLSQFMDQNNPLSEITHKRRVSALGPGGLTRERAGFEVRDVHPTHYGRVCPIETPEGPNIGLINSLATYARTNKYGFLESPYRVVKDSLVTDEIVFLSAIEEADHVIAQASATLNEKGQLVDELVAVRHLNEFTVKAPEDVTLMDVSPKQVVSVAASLIPFLEHDDANRALMGSNMQRQAVPTLRADKPLVGTGMERNVARDSGVCVVARRGGVIDSVDASRVVVRVADDEVETGEAGVDIYNLTKYTRSNQNTCINQRPLVSKGDVVARGDILADGPSTDMGELALGQNMRVAFMPWNGFNFEDSICLSERVVQEDRFTTIHIQELTCVARDTKLGPEEITADIPNVGEAALNKLDEAGIVYVGAEVQAGDILVGKVTPKGETQLTPEEKLLRAIFGEKASDVKDTSLRVPTGTKGTVIDVQVFTRDGVERDSRALSIEKMQLDQIRKDLNEEFRIVEGATFERLRAALVGAKAEGGPALKKGTEITDDYLDGLERGQWFKLRMADDALNEQLEKAQAYISDRRQLLDDKFEDKKRKLQQGDDLAPGVLKIVKVYLAIKRRIQPGDKMAGRHGNKGVVSVIMPVEDMPHDANGTPVDIVLNPLGVPSRMNVGQILETHLGLAAKGLGEKINRMLEEQRKVAELRKFLHEIYNEIGGREENLDELGDNEILALAKNLRGGVPMATPVFDGAKEREIKAMLKLADLPESGQMRLFDGRTGNQFERPTTVGYMYMLKLNHLVDDKMHARSTGSYSLVTQQPLGGKAQFGGQRFGEMEVWALEAYGAAYTLQEMLTVKSDDVNGRTKMYKNIVDGDHRMEAGMPESFNVLIKEIRSLG | failed |
| MAYVTLYPNLILEALGKVRYPGTGKDLVSAGMVEDDIRIDGNKVSFSLIFDKANDPFIKSVVKAAESAILTYISEDVNIKGNISVKSKQAIPAPPAKLLPGVKNIIAVFSGKGGVGKSTVTANLAVSLAKSGYRVGLLDADIFGPSMPKMFHCEESRPVLEEVDGRELIVPEEVMGVKILSIGFFVDPDNAVLWRGSMAGNALTQLIRDANWGELDYFLIDMPPGTSDIHLTLVQTLAITGAVVVTTPQDVALADARKGISMFVGEKINVPVLGLVENMSWFTPAELPQNKYYIFGRDGGKNLAEELNIPLLGQIPLVQGICQSGDEGIPVAVRDDSMMGIAFRELAARVVEQVDYRNEHLDPTKVVEVAHR | failed |
| MCDKDIYNNKEMIILNKQQVTKAIEKVLNSSKIGVLSTAHHNKPNSRYMVFYNDDLNLYTKTNVNSLKVEEIENNPDAHILLGYNETTNNSFVEIDATIEVVKDQKVIDWLWETQDKTFFNSKEDPELCVLKVIPRSIKLMNDDELDTPATIEL | not failed |
| MCEHHHAAKHILCSQCDMLVALPRLEHGQKAACPRCGTTLTVAWDAPRQRPTAYALAALFMLLLSNLFPFVNMNVAGVTSEITLLEIPGVLFSEDYASLGTFFLLFVQLVPAFCLITILLLVNRAELPVRLKEQLARVLFQLKTWGMAEIFLAGVLVSFVKLMAYGSIGVGSSFLPWCLFCVLQLRAFQCVDRRWLWDDIAPMPELRQPLKPGVTGIRQGLRSCSCCTAILPADEPVCPRCSTKGYVRRRNSLQWTLALLVTSIMLYLPANILPIMVTDLLGSKMPSTILAGVILLWSEGSYPVAAVIFLASIMVPTLKMIAIAWLCWDAKGHGKRDSERMHLIYEVVEFVGRWSMIDVFVIAVLSALVRMGGLMSIYPAMGALMFALVVIMTMFSAMTFDPRLSWDRQPESEHEES | failed |
| MCEYTYSNGKKCRRKPLKGSKYCSLHIPFEEGELLYGDRIKYIKKRAFERALERGIRNFEGVKLYDVIIVGKEINEALIFRNSIIKRLVIVTSKIKSLSLIDTTIDTLVIVNSEVDFFYVNGGSIYGVSICSVKFSSSILFRDSSIRYVMINSTEFSPKEVTTEEEFGEKVRIAGRIELANLKDVRRIALNSKYPLMAKIMEEFGIKLSLDRKKPVRVHTLTITGVEFDESPRFRKQVRIFINRFSGQLIFENLSVPGHVEIVNSRVRYPEFVHVIIHNNLVLRNTRLYSDENWNLAYLPNLLAELNVYGFIVIDNCQFNNPYLAEVFYRIARTTWEGSGDKENADEYYYLEMLARRKKVIQHYRKGPRTLKKMVKLLEVLFEFLFADLTCKYGTDWKRPVFLWMGLVIFVFPVFYALTKSVVPTSSLFDYVYFSIVTATTLGYGDLHPIGVGKVIASIEAIFGMFMWAVFLTVFARKYMR | failed |
| MCGDCVEKEYPNRGNTCLENGSFLLNFTGCAVCSKRDFMLITNKSLKEEDGEEIVTYDHLCKNCHHVIARHEYTFSIMDEFQEYTMLCLLCGKAEDTISILPDDPRQMTLLF | failed |
| MCMLEPSKIFKALSNPINLKILTLLRSSSFHPRELARILNRDETDISRRLRQLERLGLIKGKWERVDGKNVRVYSLKVSEIRIFMHPTKLEVKVGENESYEAPIEWESSPRVEVFVGRKRELSIIRNAKGVVVIYGIAGIGKTSLAAKAFPNAYWYNVTGLEDFKYFAWQLGLFLSSIGFEDLLEYLRGGGNNENDIFKLITEGIEKTGAIIIIDDFHKFQDEKVNYLLSYLAPRIKKGKVIITTRIRPNLGNEGVTYVNLKGLNPEEAYSLAREKEKSMTPEEFAKLYKLTFGHPLMLNLILESSEILATGKDTVFNFLFEEVYQMLNEEEKDLLSILSLFDEPIEYEGIKFLYDRNPFVPLYSLMKKGLIEKKGEKYFVHDMVREFVREVSNQEEKEVYLRHVNFLLKSKTPINFLRAFKYAIKVGSSELIRNLVELRVKEFYRIIVDFPRMYQRLLMEVEDNPYAKIEIAIIEVQRGLFEKAIKLLKEAEPYVDEFFKCEIYSWLADAYMELENLEKAERYLKKTKEIVEKINDMYAWFSYYAEKTKYEYYKENSREALKSALKELEIIRKIGDPEKEGLVLLHVGDIYLHMGNYEKGISYYQEALKMAKAYGIKFLEHISYMELAKGYYQLKLYEKASEYSEKAANYFLMIRNYRRATDAMAYGSVSYIATKNLEKAEKFAKEMIRIAQSTDYPLAWAGYIFLAAVDFLKGDDWREDYNLGKAHLKEYPWLFEAVLDELKKVFDLSNFK | failed |
| MCQTCLSWYARCVAPYFVHAGCSAGAFSQMRRRVIPRAEGVVVEVGFGSGLNLPYYDAARVERLVGIDPDGTMLGLAAPKSRAMPFAVECIRAGGESLPLADGIADTVVVTYAFCTIPDPQAALSEIRRVLKPRGRLIFIEHGQAEGPRGRRWQQRLNRLWGSIAGGCHLNRDPLRLIGGAGFRLLEVQHGRFPLPLWQLGSHHAGIAAAG | failed |
| MCRSGSRCCPPIKLRVACVVAASILTARAGTYAIAACYVAALRVMDQRIAMSLQVLGAGLGRTGTLSLKFALEHLGFGPCYHATEVAANMRTALPLWNAAERGAADWSAIFAGYRSSTDHPGCYYWRQLIEVYPQAKVVLTVRDPDSWFESVTQTILMPGRKSTFVGPEGETFSTFLKQQMGGRSQDRAFMVDYFNRWNQAVIDTVPADRLLVFSARQGWAPLCSFLGVPVPHKPYPHLHARPRLRWFTRGLRLPDDVAARERHVREYLEYLREDLFG | failed |
| MCTGTKSFFLLQRFKLKEDVTMEQKPVLDVNEVPKPGKWLFLSIQHLFAMFGSTVLVPFLTGLNPSVALISSGLGTLAFLLITKGQVPAYLGSSFAFIAPIITAKTAGGPGAAMLGGLLAGLVYILISLGIKKSGSEWIMKLLPPIVVGPVVMVIGLALAHTAVNMAMNGADGKYSFTHFSVALVTLAITIICSIFGRGFFSIIPVLLGIIGGYIFAYFQGLVDLKPVAEAKWFVVPDFTVPFVTYTPEFSWKIVLLMVPVALVTISEHIGHQIVLGNVIKRDLIEKPGLHRSIFGDGVATLIASLIGGPPNTTYGENIGVLAITRAYSVYLFIGSAVFAIMFGFIGKISALIHSIPTPVMGGVSILLFGVIASSGLRMMVDDKTDLSDKRNLMIASVILVIGIGGAVLHVGESFQVEGMALAAIVGVLLNLLLPETKQIKQSKQIAS | failed |
